Data taken from PMC6688830, “A Ubiquitin-Binding Domain that Binds a Structural Fold Distinct from that of Ubiquitin” (Structure(London, England:1993), 2019).

T1: FLAG-SMARCAD1 (WT) (human, UniProt Q9H4L7 1-1026)
T1 construct: SMARCAD1, human, UniProt Q9H4L7, full length; also called wild-type SMARCAD1; pET28a-SUMO-F-SMARCAD1; source: E. coli BL-21 CodonPlus (DE3)-RIL, purified (HisTrap, Ulp1, heparin, ProSwift SAX)
T1 sequence (looked up): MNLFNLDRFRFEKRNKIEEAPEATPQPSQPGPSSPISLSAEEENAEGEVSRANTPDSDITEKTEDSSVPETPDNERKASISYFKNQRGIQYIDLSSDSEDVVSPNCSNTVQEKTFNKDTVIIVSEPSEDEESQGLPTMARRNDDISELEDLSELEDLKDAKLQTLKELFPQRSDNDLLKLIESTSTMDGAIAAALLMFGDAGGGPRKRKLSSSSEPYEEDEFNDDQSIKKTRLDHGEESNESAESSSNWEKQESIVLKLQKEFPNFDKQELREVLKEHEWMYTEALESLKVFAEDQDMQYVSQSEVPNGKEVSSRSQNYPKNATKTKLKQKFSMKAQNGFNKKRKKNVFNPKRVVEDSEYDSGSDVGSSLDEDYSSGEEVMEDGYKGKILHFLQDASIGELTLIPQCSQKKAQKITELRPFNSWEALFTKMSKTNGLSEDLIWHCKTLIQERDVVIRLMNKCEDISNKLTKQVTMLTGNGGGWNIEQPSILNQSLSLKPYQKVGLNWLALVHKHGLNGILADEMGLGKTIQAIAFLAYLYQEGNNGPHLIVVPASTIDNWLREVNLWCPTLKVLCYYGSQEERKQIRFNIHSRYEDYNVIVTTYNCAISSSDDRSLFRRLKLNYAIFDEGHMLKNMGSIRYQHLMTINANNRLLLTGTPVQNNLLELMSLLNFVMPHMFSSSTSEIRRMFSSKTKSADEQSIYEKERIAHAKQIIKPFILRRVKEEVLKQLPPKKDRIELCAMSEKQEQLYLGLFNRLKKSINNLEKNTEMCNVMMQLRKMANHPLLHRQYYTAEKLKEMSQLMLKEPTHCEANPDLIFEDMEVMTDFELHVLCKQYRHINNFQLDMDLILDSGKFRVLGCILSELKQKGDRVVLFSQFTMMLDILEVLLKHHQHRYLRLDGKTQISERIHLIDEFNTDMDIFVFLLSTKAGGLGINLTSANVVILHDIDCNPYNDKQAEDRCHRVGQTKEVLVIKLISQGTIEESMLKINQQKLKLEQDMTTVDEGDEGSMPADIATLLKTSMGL


How the values were obtained:
Settings in all cases: both partners purified
[1] = molecular target: T2, Ubiquitin (UniProt P0CG48 1-76); test: ITC; MicroCal ITC200, 10°C; 120 μM SMARCAD1 CUE1 or CUE1,2 in the cell, 9.8 mM mono-Ub in the syringe; 10 mM Tris-HCl pH 7.9, 100 mM NaCl, 5 mM β-ME; One set of sites model
T2 construct: ubiquitin, monomeric, the cut product of a ubiquitin precursor; also called mono-Ub; monomeric ubiquitin; source: bought: Boston Biochem (purified recombinant)

[2] = molecular target: T3, KAP1 S33-K434 (human, UniProt Q13263 33-434); test: ITC; MicroCal ITC200, 20°C; KAP1 RBCC (9-18 μM) in the cell, SMARCAD1 CUE1 or CUE1,2 (90-300 μM) in the syringe; 10 mM Tris-HCl pH 7.9, 100 mM NaCl, 5 mM β-ME; One set of sites model
T3 construct: KAP1 (TRIM28), human, UniProt Q13263, residues S33-K434 (RBCC domain); The crystal structures of shorter RBCC constructs show an antiparallel homodimer; also called KAP1 RBCC (S33-K434); KAP1 RBCC; source: E. coli BL-21 CodonPlus (DE3)-RP, purified (Ni-NTA, Ulp1, Mono Q)

[3] = molecular target: T3, KAP1 S33-K434; test: co-IP; purified SMARCAD1 fragments (FLAG-CUE1,2, FLAG-CUE1) and KAP1 RBCC, 9.6μg each in 240μL, 4°C 1 hour; anti-FLAG M2 affinity gel 3 hours
[4] = molecular target: T1, FLAG-SMARCAD1 (WT); test: co-IP; purified full-length SMARCAD1 and KAP1 from E. coli, 7μg each in 280μL SK binding buffer, 200mM NaCl, 4°C; immunoprecipitated with anti-FLAG M2 affinity gel

Binder	binding result [3]	further results
FLAG-CUE1 (domain or fragment, human, UniProt Q9H4L7 95-237, looked up, SMARCAD1, human, UniProt Q9H4L7, residues S95-E237 (first CUE domain); also called wild-type CUE1 fragment (S95-E237); SMARCAD1 CUE1; source: E. coli BL-21 CodonPlus (DE3)-RIL, purified (Ni-NTA, Ulp1, Mono Q if required)) SSDSEDVVSPNCSNTVQEKTFNKDTVIIVSEPSEDEESQGLPTMARRNDDISELEDLSELEDLKDAKLQTLKELFPQRSDNDLLKLIESTSTMDGAIAAALLMFGDAGGGPRKRKLSSSSEPYEEDEFNDDQSIKKTRLDHGE		Kd [1]: ~952 µM; Kd [2]: ~158 nM
FLAG-CUE1,2 P170A (domain or fragment, human, UniProt Q9H4L7 95-347, looked up, SMARCAD1, human, UniProt Q9H4L7, CUE1,2 fragment S95-N347; source: E. coli BL-21 CodonPlus (DE3)-RIL, purified (Ni-NTA, Ulp1, Mono Q if required)) SSDSEDVVSPNCSNTVQEKTFNKDTVIIVSEPSEDEESQGLPTMARRNDDISELEDLSELEDLKDAKLQTLKELFAQRSDNDLLKLIESTSTMDGAIAAALLMFGDAGGGPRKRKLSSSSEPYEEDEFNDDQSIKKTRLDHGEESNESAESSSNWEKQESIVLKLQKEFPNFDKQELREVLKEHEWMYTEALESLKVFAEDQDMQYVSQSEVPNGKEVSSRSQNYPKNATKTKLKQKFSMKAQNGFNKKRKKN	binds	
FLAG-CUE1,2 D188A (domain or fragment, human, UniProt Q9H4L7 95-347, looked up, SMARCAD1, human, UniProt Q9H4L7, CUE1,2 fragment S95-N347; source: E. coli BL-21 CodonPlus (DE3)-RIL, purified (Ni-NTA, Ulp1, Mono Q if required)) SSDSEDVVSPNCSNTVQEKTFNKDTVIIVSEPSEDEESQGLPTMARRNDDISELEDLSELEDLKDAKLQTLKELFPQRSDNDLLKLIESTSTMAGAIAAALLMFGDAGGGPRKRKLSSSSEPYEEDEFNDDQSIKKTRLDHGEESNESAESSSNWEKQESIVLKLQKEFPNFDKQELREVLKEHEWMYTEALESLKVFAEDQDMQYVSQSEVPNGKEVSSRSQNYPKNATKTKLKQKFSMKAQNGFNKKRKKN	binds	
FLAG-CUE1,2 L195A (domain or fragment, human, UniProt Q9H4L7 95-347, looked up, SMARCAD1, human, UniProt Q9H4L7, CUE1,2 fragment S95-N347; source: E. coli BL-21 CodonPlus (DE3)-RIL, purified (Ni-NTA, Ulp1, Mono Q if required)) SSDSEDVVSPNCSNTVQEKTFNKDTVIIVSEPSEDEESQGLPTMARRNDDISELEDLSELEDLKDAKLQTLKELFPQRSDNDLLKLIESTSTMDGAIAAAALMFGDAGGGPRKRKLSSSSEPYEEDEFNDDQSIKKTRLDHGEESNESAESSSNWEKQESIVLKLQKEFPNFDKQELREVLKEHEWMYTEALESLKVFAEDQDMQYVSQSEVPNGKEVSSRSQNYPKNATKTKLKQKFSMKAQNGFNKKRKKN	binds	
FLAG-CUE1,2 K166A (domain or fragment, human, UniProt Q9H4L7 95-347, looked up, SMARCAD1, human, UniProt Q9H4L7, CUE1,2 fragment S95-N347; source: E. coli BL-21 CodonPlus (DE3)-RIL, purified (Ni-NTA, Ulp1, Mono Q if required)) SSDSEDVVSPNCSNTVQEKTFNKDTVIIVSEPSEDEESQGLPTMARRNDDISELEDLSELEDLKDAKLQTLAELFPQRSDNDLLKLIESTSTMDGAIAAALLMFGDAGGGPRKRKLSSSSEPYEEDEFNDDQSIKKTRLDHGEESNESAESSSNWEKQESIVLKLQKEFPNFDKQELREVLKEHEWMYTEALESLKVFAEDQDMQYVSQSEVPNGKEVSSRSQNYPKNATKTKLKQKFSMKAQNGFNKKRKKN	binds	
FLAG-CUE1,2 L196A (domain or fragment, human, UniProt Q9H4L7 95-347, looked up, SMARCAD1, human, UniProt Q9H4L7, CUE1,2 fragment S95-N347; source: E. coli BL-21 CodonPlus (DE3)-RIL, purified (Ni-NTA, Ulp1, Mono Q if required)) SSDSEDVVSPNCSNTVQEKTFNKDTVIIVSEPSEDEESQGLPTMARRNDDISELEDLSELEDLKDAKLQTLKELFPQRSDNDLLKLIESTSTMDGAIAAALAMFGDAGGGPRKRKLSSSSEPYEEDEFNDDQSIKKTRLDHGEESNESAESSSNWEKQESIVLKLQKEFPNFDKQELREVLKEHEWMYTEALESLKVFAEDQDMQYVSQSEVPNGKEVSSRSQNYPKNATKTKLKQKFSMKAQNGFNKKRKKN	binds	
FLAG-CUE1,2 E167A (domain or fragment, human, UniProt Q9H4L7 95-347, looked up, SMARCAD1, human, UniProt Q9H4L7, CUE1,2 fragment S95-N347; source: E. coli BL-21 CodonPlus (DE3)-RIL, purified (Ni-NTA, Ulp1, Mono Q if required)) SSDSEDVVSPNCSNTVQEKTFNKDTVIIVSEPSEDEESQGLPTMARRNDDISELEDLSELEDLKDAKLQTLKALFPQRSDNDLLKLIESTSTMDGAIAAALLMFGDAGGGPRKRKLSSSSEPYEEDEFNDDQSIKKTRLDHGEESNESAESSSNWEKQESIVLKLQKEFPNFDKQELREVLKEHEWMYTEALESLKVFAEDQDMQYVSQSEVPNGKEVSSRSQNYPKNATKTKLKQKFSMKAQNGFNKKRKKN	binds	
FLAG-CUE1,2 K161A (domain or fragment, human, UniProt Q9H4L7 95-347, looked up, SMARCAD1, human, UniProt Q9H4L7, CUE1,2 fragment S95-N347; source: E. coli BL-21 CodonPlus (DE3)-RIL, purified (Ni-NTA, Ulp1, Mono Q if required)) SSDSEDVVSPNCSNTVQEKTFNKDTVIIVSEPSEDEESQGLPTMARRNDDISELEDLSELEDLKDAALQTLKELFPQRSDNDLLKLIESTSTMDGAIAAALLMFGDAGGGPRKRKLSSSSEPYEEDEFNDDQSIKKTRLDHGEESNESAESSSNWEKQESIVLKLQKEFPNFDKQELREVLKEHEWMYTEALESLKVFAEDQDMQYVSQSEVPNGKEVSSRSQNYPKNATKTKLKQKFSMKAQNGFNKKRKKN	binds	
FLAG-CUE1,2 Q171A (domain or fragment, human, UniProt Q9H4L7 95-347, looked up, SMARCAD1, human, UniProt Q9H4L7, CUE1,2 fragment S95-N347; source: E. coli BL-21 CodonPlus (DE3)-RIL, purified (Ni-NTA, Ulp1, Mono Q if required)) SSDSEDVVSPNCSNTVQEKTFNKDTVIIVSEPSEDEESQGLPTMARRNDDISELEDLSELEDLKDAKLQTLKELFPARSDNDLLKLIESTSTMDGAIAAALLMFGDAGGGPRKRKLSSSSEPYEEDEFNDDQSIKKTRLDHGEESNESAESSSNWEKQESIVLKLQKEFPNFDKQELREVLKEHEWMYTEALESLKVFAEDQDMQYVSQSEVPNGKEVSSRSQNYPKNATKTKLKQKFSMKAQNGFNKKRKKN	binds	
FLAG-CUE1,2 A192G (domain or fragment, human, UniProt Q9H4L7 95-347, looked up, SMARCAD1, human, UniProt Q9H4L7, CUE1,2 fragment S95-N347; source: E. coli BL-21 CodonPlus (DE3)-RIL, purified (Ni-NTA, Ulp1, Mono Q if required)) SSDSEDVVSPNCSNTVQEKTFNKDTVIIVSEPSEDEESQGLPTMARRNDDISELEDLSELEDLKDAKLQTLKELFPQRSDNDLLKLIESTSTMDGAIGAALLMFGDAGGGPRKRKLSSSSEPYEEDEFNDDQSIKKTRLDHGEESNESAESSSNWEKQESIVLKLQKEFPNFDKQELREVLKEHEWMYTEALESLKVFAEDQDMQYVSQSEVPNGKEVSSRSQNYPKNATKTKLKQKFSMKAQNGFNKKRKKN	binds	
HA-KAP1 (natural protein, human, UniProt Q13263 1-835, looked up, KAP1 (TRIM28), human, UniProt Q13263, full length; also called hemagglutinin-tagged KAP1; TRIM28; source: E. coli BL-21 CodonPlus (DE3)-RP, purified (HisTrap, Ulp1, heparin, Sephacryl S-400)) MAASAAAASAAAASAASGSPGPGEGSAGGEKRSTAPSAAASASASAAASSPAGGGAEALELLEHCGVCRERLRPEREPRLLPCLHSACSACLGPAAPAAANSSGDGGAAGDGTVVDCPVCKQQCFSKDIVENYFMRDSGSKAATDAQDANQCCTSCEDNAPATSYCVECSEPLCETCVEAHQRVKYTKDHTVRSTGPAKSRDGERTVYCNVHKHEPLVLFCESCDTLTCRDCQLNAHKDHQYQFLEDAVRNQRKLLASLVKRLGDKHATLQKSTKEVRSSIRQVSDVQKRVQVDVKMAILQIMKELNKRGRVLVNDAQKVTEGQQERLERQHWTMTKIQKHQEHILRFASWALESDNNTALLLSKKLIYFQLHRALKMIVDPVEPHGEMKFQWDLNAWTKSAEAFGKIVAERPGTNSTGPAPMAPPRAPGPLSKQGSGSSQPMEVQEGYGFGSGDDPYSSAEPHVSGVKRSRSGEGEVSGLMRKVPRVSLERLDLDLTADSQPPVFKVFPGSTTEDYNLIVIERGAAAAATGQPGTAPAGTPGAPPLAGMAIVKEEETEAAIGAPPTATEGPETKPVLMALAEGPGAEGPRLASPSGSTSSGLEVVAPEGTSAPGGGPGTLDDSATICRVCQKPGDLVMCNQCEFCFHLDCHLPALQDVPGEEWSCSLCHVLPDLKEEDGSLSLDGADSTGVVAKLSPANQRKCERVLLALFCHEPCRPLHQLATDSTFSLDQPGGTLDLTLIRARLQEKLSPPYSSPQEFAQDVGRMFKQFNKLTEDKADVQSIIGLQRFFETRMNEAFGDTKFSAVLVEPPPMSLPGAGLSSQELSGGPGDGP		binding result [4]: binds
